In paper PMC8782398:

Columns and labels:
[1] = molecular target: human NOP receptor in HEK293 cells (human) (UniProt P41146)
[2] = molecular target: human NOP receptor in HEK293 cells (human) (UniProt P41146); remark: listed apart in the source
[3] = molecular target: human NOP receptor in HEK293 cells (human) (UniProt P41146); remark: listed apart in the source

human NOP receptor in HEK293 cells (human), sequence (P41146 whole entry): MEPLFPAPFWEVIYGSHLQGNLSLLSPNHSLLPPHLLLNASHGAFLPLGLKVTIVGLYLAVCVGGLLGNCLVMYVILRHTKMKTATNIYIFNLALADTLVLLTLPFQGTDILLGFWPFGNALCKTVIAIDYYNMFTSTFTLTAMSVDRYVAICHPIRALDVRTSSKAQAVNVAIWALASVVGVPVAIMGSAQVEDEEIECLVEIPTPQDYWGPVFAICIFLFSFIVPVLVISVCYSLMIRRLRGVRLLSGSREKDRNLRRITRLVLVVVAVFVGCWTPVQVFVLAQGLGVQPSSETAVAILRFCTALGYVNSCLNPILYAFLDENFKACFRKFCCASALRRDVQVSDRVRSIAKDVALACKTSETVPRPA

“human MOP receptor in HEK293 cells (from UniProt P35372 1-400)” gave a GTPγ[35S] binding stimulated by De101, HEK (MOP/NOP) membranes: pEC50 [1] of 8.67, a GTPγ[35S] binding stimulated by DeNO, HEK (MOP/NOP) membranes: pEC50 [1] of 7.63 and a GTPγ[35S] binding stimulated by Dermorphin, HEK (MOP/NOP) membranes: pEC50 [1] of 7.6. It also gave an inhibition of cAMP formation by De101, HEK (MOP/NOP) cells: Emax (% inhibition) [1] of 86%, an inhibition of cAMP formation by De101, HEK (MOP/NOP) cells: pEC50 [1] of 8.81 and an inhibition of cAMP formation by DeNO, HEK (MOP/NOP) cells: Emax (% inhibition) [1] of 88.6%. For the same substance, the inhibition of cAMP formation by DeNO, HEK (MOP/NOP) cells: pEC50 [1] was 7.55, the inhibition of cAMP formation by Dermorphin & N/OFQ (co-administered), HEK (MOP/NOP) cells: Emax (% inhibition) [1] was 81.3% and the inhibition of cAMP formation by Dermorphin & UFP-101 (co-administered), HEK (MOP/NOP) cells: Emax (% inhibition) [1] was 84.4%. For the same substance, the inhibition of cAMP formation by Dermorphin & UFP-101 (co-administered), HEK (MOP/NOP) cells: pEC50 [1] was 8.95, the inhibition of cAMP formation by Dermorphin, HEK (MOP/NOP) cells: Emax (% inhibition) [1] was 81.4% and the inhibition of cAMP formation by Dermorphin, HEK (MOP/NOP) cells: pEC50 [1] was 7.59. It also gave an inhibition of cAMP formation by N/OFQ, HEK (MOP/NOP) cells: Emax (% inhibition) [1] of 86.3%, an inhibition of cAMP formation by N/OFQ, HEK (MOP/NOP) cells: pEC50 [1] of 9.17 and an ERK1/2 phosphorylation (fold over basal), 1 μM Dermorphin, HEK (MOP/NOP) cells, 2.5-30 min; peak at 10 min [2] of 11.8 fold. It also gave an ERK1/2 phosphorylation (fold over basal), 1 μM N/OFQ, HEK (MOP/NOP) cells, 2.5-30 min; peak at 7.5-10 min [3] of 5 fold.
